Experimental findings from PMC6036645 are described below.

The assay addresses Leptospira interrogans thermolysin encoded by LIC13322, prothermolysin fragment PepSY-M4 (74 kDa) (Leptospira interrogans). Nature of the assay: SEC. (In general: In gel filtration, larger molecules generally elute earlier.)

In turn, “Leptospira interrogans thermolysin encoded by LIC13322, prothermolysin fragment PepSY-M4 (74 kDa) (enzyme)” came in with a stoichiometry N of 2.

By stoichiometry N is commonly meant the number of molecules, sites or subunits per partner or assembly.
